Experimental data taken from PMC5662698, “Conformation transitions of the polypeptide-binding pocket support an active substrate release from Hsp70s” (Nature Communications, 2017).

How the values were obtained:
[1] = molecular target: T1, TMR-labeled DnaK (DnaK FRET construct C15A/M404C/T437C labelled with tetramethylrhodamine) (E. coli, UniProt P0A6Y8 1-638, C15A | M404C | T437C, tetramethylrhodamine (TMR, from 5-IATR) on both introduced cysteines (M404C, T437C)); test: other fluorescence titration; quenching of two TMR labels on DnaK (called FRET by the paper); 30 nM TMR-labeled DnaK, 2 mM ATP, buffer C (30 mM Tris-HCl pH 7.5, 25 mM KCl, 3 mM MgCl2, 10% glycerol), room temperature, DnaJ added at indicated concentrations; conditions: both partners purified
T1 construct: DnaK, an E. coli Hsp70, with C15A, M404C, T437C; ATP (2 mM) present in the DnaJ experiments; source: E. coli dnak deletion strain BB205 (plasmid pBB46), purified, labelled with 5-IATR, HiTrap Q, monomer peak used

[2] = molecular target: T2, TMR-labeled BiP protein (BiP-C41A/C420A/V429C/T462C labelled with tetramethylrhodamine) (human, UniProt P11021 19-654, C41A | C420A | V429C | T462C, tetramethylrhodamine (TMR, from 5-IATR) on both introduced cysteines (V429C, T462C)); test: other fluorescence titration; quenching of two TMR labels on BiP (called FRET by the paper); 300 nM TMR-labeled BiP, 2 mM ATP, buffer B (30 mM Tris-HCl pH 7.0, 100 mM KCl, 3 mM MgCl2, 3 mM CaCl2, 10% glycerol), room temperature, serial dilutions of ERdj3, one-site binding fit; conditions: both partners purified
T2 construct: human BiP with C41A, C420A, V429C, T462C; ATP (2 mM) present in the ERdj3 experiments; also called TMR-labeled BiP FRET protein; source: E. coli BL21(DE3) Gold, purified, labelled with 5-IATR, HiTrap Q, monomer peak used; not shown: His6, N-terminal, cleaved; Smt3, N-terminal, cleaved
T2 sequence (P11021 19-654 C41A/C420A/V429C/T462C): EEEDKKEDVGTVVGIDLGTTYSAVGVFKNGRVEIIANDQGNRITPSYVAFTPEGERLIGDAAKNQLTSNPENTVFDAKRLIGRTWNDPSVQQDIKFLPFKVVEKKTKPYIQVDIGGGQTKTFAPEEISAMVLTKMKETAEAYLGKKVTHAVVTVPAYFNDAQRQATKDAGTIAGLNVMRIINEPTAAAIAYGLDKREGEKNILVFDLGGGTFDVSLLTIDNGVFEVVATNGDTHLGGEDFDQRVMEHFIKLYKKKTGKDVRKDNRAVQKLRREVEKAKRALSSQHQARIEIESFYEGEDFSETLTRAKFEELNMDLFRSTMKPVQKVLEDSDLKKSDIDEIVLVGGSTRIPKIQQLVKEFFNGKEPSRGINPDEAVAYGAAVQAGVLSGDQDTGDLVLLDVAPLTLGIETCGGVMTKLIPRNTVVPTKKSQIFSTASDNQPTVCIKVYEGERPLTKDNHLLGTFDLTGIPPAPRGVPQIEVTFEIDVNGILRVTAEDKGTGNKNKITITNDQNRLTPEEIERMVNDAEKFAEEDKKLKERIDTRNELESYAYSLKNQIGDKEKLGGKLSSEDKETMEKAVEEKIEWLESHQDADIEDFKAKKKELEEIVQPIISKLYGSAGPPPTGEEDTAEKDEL

fold change of the dissociation constant against ERdj3-BiP [1] | Kd [2] | Binder
~10 times lower | – | DnaJ (natural protein, UniProt P08622 1-376, looked up, DnaJ, the Hsp40 partner of DnaK; also called Hsp40 co-chaperone DnaJ; source: E. coli BL21(DE3) Gold, purified (HisTrap, Ulp1, HisTrap, Superdex 200); not shown: Smt3, N-terminal, cleaved; His6 (from the vector pSMT3), N-terminal, cleaved) MAKQDYYEILGVSKTAEEREIRKAYKRLAMKYHPDRNQGDKEAEAKFKEIKEAYEVLTDSQKRAAYDQYGHAAFEQGGMGGGGFGGGADFSDIFGDVFGDIFGGGRGRQRAARGADLRYNMELTLEEAVRGVTKEIRIPTLEECDVCHGSGAKPGTQPQTCPTCHGSGQVQMRQGFFAVQQTCPHCQGRGTLIKDPCNKCHGHGRVERSKTLSVKIPAGVDTGDRIRLAGEGEAGEHGAPAGDLYVQVQVKQHPIFEREGNNLYCEVPINFAMAALGGEIEVPTLDGRVKLKVPGETQTGKLFRMRGKGVKSVRGGAQGDLLCRVVVETPVGLNERQKQLLQELQESFGGPTGEHNSPRSKSFFDGVKKFFDDLTR
– | 1670 ± 110 nM | ERdj3 (natural protein, UniProt Q9UBS4 23-358, looked up, ERdj3, an Hsp40 co-chaperone of BiP in the ER; plasmid a gift of Dr. Linda Hendershot; also called Hsp40 ERdj3; source: M15 E. coli, purified (HisTrap, 2 M urea in the lysis buffer, dialysis)) GRDFYKILGVPRSASIKDIKKAYRKLALQLHPDRNPDDPQAQEKFQDLGAAYEVLSDSEKRKQYDTYGEEGLKDGHQSSHGDIFSHFFGDFGFMFGGTPRQQDRNIPRGSDIIVDLEVTLEEVYAGNFVEVVRNKPVARQAPGKRKCNCRQEMRTTQLGPGRFQMTQEVVCDECPNVKLVNEERTLEVEIEPGVRDGMEYPFIGEGEPHVDGEPGDLRFRIKVVKHPIFERRGDDLYTNVTISLVESLVGFEMDITHLDGHKVHISRDKITRPGAKLWKKGEGLPNFDNNNIKGSLIITFDVDFPKEQLTEEAREGIKQLLKQGSVQKVYNGLQGY
